Assay results: PMC11645210

Experiments:
[1] = target: SARS-CoV-2 BA.2.86 Hexapro S ectodomain (SARS-CoV-2) (UniProt P0DTC2); assay: cryo-EM structure
[2] = target: SARS-CoV-2 XBB.1.5 + L455F RBD (SARS-CoV-2) (UniProt P0DTC2); assay: SPR
[3] = target: SARS-CoV-2 XBB.1.5 + L455S RBD (SARS-CoV-2) (UniProt P0DTC2); assay: SPR

Substance: SARS-CoV-2 BA.2.86 Hexapro S ectodomain (from UniProt P0DTC2 14-1204) (domain or fragment)
- stoichiometry N [1]: 3

Substance: VIR-7229 Fab fragment
- Kd [2]: 0.193 nM
- koff [2]: 0.000113 s⁻¹
- kon [2]: 604000 M⁻¹ s⁻¹
- Kd [3]: 0.199 nM
- koff [3]: 0.000106 s⁻¹
- kon [3]: 543000 M⁻¹ s⁻¹
